The labels stand for the following.
B1: VH:VL chains; a variant is named by its letters at X, in order (parent)
chain 1: QVQLVQSGAEVKKPGASVKVSCKASGYTFTDYXMHWVRQAPGQGLEWMGXVNPNXXXTTYNQKFEGRVTMTTDTSTSTAYMELRSLRSDDTAVYYCARXNXLDXWGQGTTVTVSS
chain 2: DIQMTQSPSSLSASVGDRVTITCSVSSSVSSIYLHWYQQKPGKAPKLLIYSTSNLASGVPSRFSGSGSGTDFTLTISSLQPEDFATYYCQVYSGYPLTFGGGTKVEIK

The variants in the data set derive from B1. Description: yeast display scFab, FACS + sequencing. In a few lines: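 Non-specific binding was called from deep sequencing of sorted yeast cells displaying a heavy-chain CDR mutant scFab library. Cells labelled with anti-Myc and biotinylated ovalbumin (260 μg/mL in PBSB, 3 h, room temperature) or soluble membrane proteins (130 μg/mL, 20 min on ice) were FACS-sorted, collecting the top 25% and bottom 10% of binders from two replicates. A sequence was positive when present in ≥3 of 4 pooled positive samples and absent from all negatives, and negative under the converse rule.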
Regarding YTGEGDGV, the non-specific binding call is recorded as “no binding”.

Regarding YRKGGSWS, the non-specific binding call was “binds”. Regarding VKGRGSLF, the non-specific binding call is “binds”. With SKGRSDVF, the non-specific binding call was “no binding”. Next, YTKRSAVV: “binds”; FRGRDYGY: “binds”; YKGRGAGY: “binds”. Regarding FEGGTDVV, the non-specific binding call is “no binding”.

Consider SEARSAVY, for which the non-specific binding call is given as “no binding”. Turning to SGAGDYSD, the non-specific binding call is “binds”. Next, YRERGAAA: “binds”; VKEKGDSA: “no binding”. For the variant ARAAGDVF, the non-specific binding call is given as “no binding”. Next, DRREGYGA: “binds”; YRAKGAAD: “binds”; VTGTGSSA: “no binding”. Regarding YEGTGSLS, the non-specific binding call is reported as “no binding”. Regarding VKKTGDLY, the non-specific binding call is reported as “no binding”. Turning to ARGAGYGS, the non-specific binding call is reported as “binds”.

Consider DTTKSSSS, for which the non-specific binding call is reported as “no binding”. For the variant VRAGDAGA, the non-specific binding call is “no binding”.

In the case of VRGRGYGV, the non-specific binding call is recorded as “binds”. Then VTGGSDVY, with “no binding”; and SAREGSSA, with “no binding”.

As for YTGGDDWV, the non-specific binding call was “no binding”. Regarding DGGKNAGD, the non-specific binding call was “no binding”.

Take YRGGGYGF: the non-specific binding call was “binds”.

Consider AARADAVA, for which the non-specific binding call was “no binding”. Take YRERGAGF: the non-specific binding call is on record as “binds”. Consider DATGGYAV, for which the non-specific binding call is reported as “no binding”. Then FEETDAGD, with “binds”; and FRGGASSD, with “binds”; and YKAGGSGV, with “binds”. Take FRGRGAWD: the non-specific binding call is on record as “binds”.

For FRGRGAWF, the non-specific binding call was “binds”. In the case of YKTGGDGV, the non-specific binding call is “no binding”. In the case of YRRRGSLD, the non-specific binding call is reported as “binds”. In the case of FRTKDDVY chain 1 E46K, the non-specific binding call is “binds”.

Take YGRRGFSV: the non-specific binding call is recorded as “binds”. Regarding DATGGDWA, the non-specific binding call is on record as “no binding”.

In the case of AEERASAF, the non-specific binding call was “binds”. VRERGDWF: the non-specific binding call is given as “no binding”.

On to YRGKSSGF, for which the non-specific binding call is listed as “binds”.

SAAGGDVA chain 1 L45S: the non-specific binding call is listed as “no binding”. With DRGRSDVA, the non-specific binding call was “no binding”. For VRERGSWD, the non-specific binding call is reported as “binds”.

In the case of VTEEGDWV, the non-specific binding call was “no binding”. As to VTGGGDGS, the non-specific binding call was “no binding”. Consider DTGEADAS, for which the non-specific binding call is reported as “no binding”. Consider SKGRADVY, for which the non-specific binding call is recorded as “no binding”. On to FKKGSVGD, for which the non-specific binding call is “binds”. Take DAGGDAGD: the non-specific binding call is on record as “no binding”. Turning to YREEGDGV, the non-specific binding call is listed as “no binding”. Next, FEATASWS: “binds”; YGTRSYGV: “binds”; VRAGGFGA: “binds”. For the variant VKKTGSGA, the non-specific binding call is listed as “binds”. Take DEGEDAGA: the non-specific binding call is listed as “no binding”. Next, YAGKGAWV: “binds”; DAEKGAWA: “no binding”. VAGGAYLY: the non-specific binding call is given as “no binding”. Take SAGRGDWD: the non-specific binding call was “no binding”. Consider VRRGGAWV, for which the non-specific binding call was “binds”. Regarding FRRGDSAA, the non-specific binding call is listed as “binds”.

AETKGSLA: the non-specific binding call is recorded as “no binding”. As for YRGRGVWV, the non-specific binding call was “binds”. Then DAGGAAVS, with “no binding”. Next, YRRRGYVF: “binds”; YRGKGAVF: “binds”. As to SEARSALV, the non-specific binding call is listed as “no binding”. Regarding DATRSSWD, the non-specific binding call was “no binding”. Consider YRGRDFVD, for which the non-specific binding call is listed as “binds”.

For the variant SEARSDSV, the non-specific binding call is reported as “no binding”.

For the variant YRRRGSGY, the non-specific binding call is recorded as “binds”.

Take YARRGSLD: the non-specific binding call was “binds”. Regarding YTRGADLA, the non-specific binding call was “no binding”. For VKAGGDAV, the non-specific binding call was “no binding”. In the case of YRRGGYAV, the non-specific binding call was “binds”. For the variant VAGGDAVA, the non-specific binding call is reported as “no binding”. For DKTKGDWV, the non-specific binding call is “no binding”. Next, YRGAGFVD: “binds”.

Take YRGRTAAA: the non-specific binding call is “binds”.

As to YKARGSLV, the non-specific binding call was “binds”. As to YKARGSLY, the non-specific binding call is recorded as “binds”. DEGGTDSF: the non-specific binding call is given as “no binding”. Next, SAAGGASD chain 1 L45S: “no binding”.

As to VKARGSGD, the non-specific binding call is reported as “binds”. In the case of YRKGSSGA, the non-specific binding call is given as “binds”. SKGRGAWD: the non-specific binding call was “binds”. As for VKGRADWD, the non-specific binding call is given as “no binding”. For the variant DAGKSDWY, the non-specific binding call was “no binding”. For VEGTSDLS, the non-specific binding call is reported as “no binding”. Consider VTGGDALA, for which the non-specific binding call is “no binding”. Next, SETGAALD: “no binding”; YRAGDSGY: “no binding”; YRAGSSWD: “binds”. Then DAKEGDGV, with “no binding”; and YRTRDDVV, with “no binding”; and AETKGDWD, with “no binding”. Consider VAATADVA, for which the non-specific binding call is recorded as “no binding”.

AARADSGY: the non-specific binding call is listed as “no binding”. YKGKGALD: the non-specific binding call was “binds”. In the case of SKGASFAY, the non-specific binding call is “binds”. For DREEGSSY, the non-specific binding call is recorded as “no binding”. Turning to SETTDDAV, the non-specific binding call is on record as “no binding”.

As to SREAADAV, the non-specific binding call is given as “no binding”. Turning to YKGKGDAD, the non-specific binding call was “binds”. Then SKGKGSSA, with “binds”; and YRGGDYSV, with “no binding”. For YEGTGAVF, the non-specific binding call is “no binding”. FKARGSVD: the non-specific binding call is listed as “binds”. As to VEEEGDWD, the non-specific binding call is on record as “no binding”. YRTRGAGA: the non-specific binding call is “binds”.

Consider ARRGSSLD, for which the non-specific binding call is recorded as “no binding”. On to FKTKNYAD, for which the non-specific binding call was “binds”. Consider YRARGAAS, for which the non-specific binding call is on record as “binds”. Turning to VAGTGDWF, the non-specific binding call is “no binding”.

For the variant YRRGGSAA, the non-specific binding call is on record as “binds”.

Values taken from the emibetuzumab library of Makowski et al. (2022).
